Molecular target: platelet integrin αIIbβ3 (human (endogenous in platelets)) (UniProt P08514)

Rhodostomin (from UniProt P30403) (natural protein)
IC50 (KI in the text) of inhibition of ADP-induced platelet aggregation in human PRP: 83.2 nM
